In US20180155451A1 (published 2018):

T1: FcγRIIa H (human, UniProt P12318 34-217)
T1 construct: extracellular domain; also called FcgRIIa H type; 2aH; not shown: His tag at the C terminus
T1 sequence (looked up): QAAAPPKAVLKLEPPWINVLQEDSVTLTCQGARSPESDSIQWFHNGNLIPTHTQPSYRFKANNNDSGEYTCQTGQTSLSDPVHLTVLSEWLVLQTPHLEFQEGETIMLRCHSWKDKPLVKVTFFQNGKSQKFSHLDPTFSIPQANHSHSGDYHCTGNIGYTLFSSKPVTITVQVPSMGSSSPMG

B1: GpH7-B3 variant I332_15Y/GpL16-k0 (antibody, human IgG1, kappa)
heavy: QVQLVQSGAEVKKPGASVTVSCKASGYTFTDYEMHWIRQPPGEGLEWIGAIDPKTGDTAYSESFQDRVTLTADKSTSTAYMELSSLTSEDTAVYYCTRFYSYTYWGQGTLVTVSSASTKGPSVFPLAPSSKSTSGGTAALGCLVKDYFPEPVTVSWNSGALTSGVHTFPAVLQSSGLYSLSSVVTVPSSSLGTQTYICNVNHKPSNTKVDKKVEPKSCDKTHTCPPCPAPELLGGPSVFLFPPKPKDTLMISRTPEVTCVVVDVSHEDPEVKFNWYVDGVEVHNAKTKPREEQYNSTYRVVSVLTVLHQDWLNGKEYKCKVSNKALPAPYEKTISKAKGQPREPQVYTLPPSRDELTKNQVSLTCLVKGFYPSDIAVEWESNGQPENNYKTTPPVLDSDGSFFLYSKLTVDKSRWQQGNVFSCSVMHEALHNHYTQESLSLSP
light: DIVMTQSPLSLPVTPGEPASISCQASESLVHSNRNTYLHWYLQKPGQSPQLLIYKVSNRFSGVPDRFSGSGSGTDFTLKISRVEAEDVGVYYCSQNTHVPPTFGQGTKVEIERTVAAPSVFIFPPSDEQLKSGTASVVCLLNNFYPREAKVQWKVDNALQSGNSQESVTEQDSKDSTYSLSSTLTLSKADYEKHKVYACEVTHQGLSSPVTKSFNRGEC
notes: also called Ho Ab I332_15Y
B2: GpH7-B3 variant K334_15Y/GpL16-k0 (antibody, human IgG1, kappa)
heavy: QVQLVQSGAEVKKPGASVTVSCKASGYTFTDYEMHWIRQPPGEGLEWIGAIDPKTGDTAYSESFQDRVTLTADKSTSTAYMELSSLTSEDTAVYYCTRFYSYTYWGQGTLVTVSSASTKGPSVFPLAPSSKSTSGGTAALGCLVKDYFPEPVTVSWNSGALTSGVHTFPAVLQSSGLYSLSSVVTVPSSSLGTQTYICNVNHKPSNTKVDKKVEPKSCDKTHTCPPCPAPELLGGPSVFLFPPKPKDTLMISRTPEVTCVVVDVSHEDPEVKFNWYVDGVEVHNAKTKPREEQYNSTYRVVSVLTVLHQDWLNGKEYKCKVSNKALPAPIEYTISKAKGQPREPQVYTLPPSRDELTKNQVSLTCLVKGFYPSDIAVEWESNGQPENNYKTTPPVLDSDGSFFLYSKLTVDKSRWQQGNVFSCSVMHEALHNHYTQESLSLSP
light: DIVMTQSPLSLPVTPGEPASISCQASESLVHSNRNTYLHWYLQKPGQSPQLLIYKVSNRFSGVPDRFSGSGSGTDFTLKISRVEAEDVGVYYCSQNTHVPPTFGQGTKVEIERTVAAPSVFIFPPSDEQLKSGTASVVCLLNNFYPREAKVQWKVDNALQSGNSQESVTEQDSKDSTYSLSSTLTLSKADYEKHKVYACEVTHQGLSSPVTKSFNRGEC
notes: also called Ho Ab K334_15Y
B3: GpH7-B3 variant K334_03V/GpL16-k0 (antibody, human IgG1, kappa)
heavy: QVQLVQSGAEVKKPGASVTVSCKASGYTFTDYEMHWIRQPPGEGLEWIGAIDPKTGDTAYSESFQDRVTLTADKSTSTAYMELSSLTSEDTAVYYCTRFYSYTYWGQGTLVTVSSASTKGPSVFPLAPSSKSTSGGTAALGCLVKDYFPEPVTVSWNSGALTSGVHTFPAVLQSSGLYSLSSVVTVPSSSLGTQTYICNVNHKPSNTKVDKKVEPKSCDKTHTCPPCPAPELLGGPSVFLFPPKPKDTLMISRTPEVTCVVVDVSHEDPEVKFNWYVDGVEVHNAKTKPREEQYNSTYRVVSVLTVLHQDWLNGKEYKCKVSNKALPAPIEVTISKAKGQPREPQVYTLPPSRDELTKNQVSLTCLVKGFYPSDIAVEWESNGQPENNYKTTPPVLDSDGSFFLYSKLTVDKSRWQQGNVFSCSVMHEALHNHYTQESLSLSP
light: DIVMTQSPLSLPVTPGEPASISCQASESLVHSNRNTYLHWYLQKPGQSPQLLIYKVSNRFSGVPDRFSGSGSGTDFTLKISRVEAEDVGVYYCSQNTHVPPTFGQGTKVEIERTVAAPSVFIFPPSDEQLKSGTASVVCLLNNFYPREAKVQWKVDNALQSGNSQESVTEQDSKDSTYSLSSTLTLSKADYEKHKVYACEVTHQGLSSPVTKSFNRGEC
notes: also called Ho Ab K334_03V
B4: GpH7-B3 variant L328_13S/GpL16-k0 (antibody, human IgG1, kappa)
heavy: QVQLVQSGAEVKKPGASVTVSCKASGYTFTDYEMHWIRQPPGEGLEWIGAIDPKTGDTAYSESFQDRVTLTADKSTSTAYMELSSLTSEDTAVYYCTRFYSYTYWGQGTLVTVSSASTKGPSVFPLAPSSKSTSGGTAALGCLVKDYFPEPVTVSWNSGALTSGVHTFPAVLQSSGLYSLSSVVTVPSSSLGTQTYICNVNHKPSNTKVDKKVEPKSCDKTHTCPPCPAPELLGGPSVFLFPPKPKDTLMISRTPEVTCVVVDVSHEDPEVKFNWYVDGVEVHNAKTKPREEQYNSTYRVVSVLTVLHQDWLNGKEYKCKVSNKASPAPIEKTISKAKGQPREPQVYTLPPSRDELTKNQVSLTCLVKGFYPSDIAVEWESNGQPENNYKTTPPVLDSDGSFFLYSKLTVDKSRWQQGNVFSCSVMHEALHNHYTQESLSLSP
light: DIVMTQSPLSLPVTPGEPASISCQASESLVHSNRNTYLHWYLQKPGQSPQLLIYKVSNRFSGVPDRFSGSGSGTDFTLKISRVEAEDVGVYYCSQNTHVPPTFGQGTKVEIERTVAAPSVFIFPPSDEQLKSGTASVVCLLNNFYPREAKVQWKVDNALQSGNSQESVTEQDSKDSTYSLSSTLTLSKADYEKHKVYACEVTHQGLSSPVTKSFNRGEC
notes: also called Ho Ab L328_13S
B5: GpH7-B3 variant K326_10E/GpL16-k0 (antibody, human IgG1, kappa)
heavy: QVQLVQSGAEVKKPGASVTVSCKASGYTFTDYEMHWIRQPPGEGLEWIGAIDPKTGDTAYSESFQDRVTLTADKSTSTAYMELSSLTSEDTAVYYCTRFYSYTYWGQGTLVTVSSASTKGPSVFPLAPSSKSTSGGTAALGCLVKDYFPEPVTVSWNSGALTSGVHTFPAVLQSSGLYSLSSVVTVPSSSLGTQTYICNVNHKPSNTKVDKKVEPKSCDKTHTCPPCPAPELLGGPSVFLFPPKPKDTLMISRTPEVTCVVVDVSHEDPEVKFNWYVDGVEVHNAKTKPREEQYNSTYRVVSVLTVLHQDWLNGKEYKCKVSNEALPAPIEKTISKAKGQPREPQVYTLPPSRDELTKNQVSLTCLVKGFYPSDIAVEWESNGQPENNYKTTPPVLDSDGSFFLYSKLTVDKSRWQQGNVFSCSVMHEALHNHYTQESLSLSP
light: DIVMTQSPLSLPVTPGEPASISCQASESLVHSNRNTYLHWYLQKPGQSPQLLIYKVSNRFSGVPDRFSGSGSGTDFTLKISRVEAEDVGVYYCSQNTHVPPTFGQGTKVEIERTVAAPSVFIFPPSDEQLKSGTASVVCLLNNFYPREAKVQWKVDNALQSGNSQESVTEQDSKDSTYSLSSTLTLSKADYEKHKVYACEVTHQGLSSPVTKSFNRGEC
notes: also called Ho Ab K326_10E
B6: GpH7-B3 variant K334_07I/GpL16-k0 (antibody, human IgG1, kappa)
heavy: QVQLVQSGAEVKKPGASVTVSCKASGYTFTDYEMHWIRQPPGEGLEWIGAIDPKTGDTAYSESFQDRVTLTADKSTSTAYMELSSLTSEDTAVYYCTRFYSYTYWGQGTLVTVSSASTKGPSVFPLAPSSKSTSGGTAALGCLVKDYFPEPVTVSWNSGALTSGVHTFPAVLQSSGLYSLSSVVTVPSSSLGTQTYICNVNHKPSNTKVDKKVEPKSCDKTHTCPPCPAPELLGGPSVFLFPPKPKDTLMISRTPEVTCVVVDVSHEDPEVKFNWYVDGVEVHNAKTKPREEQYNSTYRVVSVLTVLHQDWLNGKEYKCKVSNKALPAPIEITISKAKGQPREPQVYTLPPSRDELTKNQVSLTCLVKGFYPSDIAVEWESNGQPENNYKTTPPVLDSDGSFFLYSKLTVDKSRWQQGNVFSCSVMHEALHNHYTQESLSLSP
light: DIVMTQSPLSLPVTPGEPASISCQASESLVHSNRNTYLHWYLQKPGQSPQLLIYKVSNRFSGVPDRFSGSGSGTDFTLKISRVEAEDVGVYYCSQNTHVPPTFGQGTKVEIERTVAAPSVFIFPPSDEQLKSGTASVVCLLNNFYPREAKVQWKVDNALQSGNSQESVTEQDSKDSTYSLSSTLTLSKADYEKHKVYACEVTHQGLSSPVTKSFNRGEC
notes: also called Ho Ab K334_07I
B7: GpH7-B3 variant K334_08L/GpL16-k0 (antibody, human IgG1, kappa)
heavy: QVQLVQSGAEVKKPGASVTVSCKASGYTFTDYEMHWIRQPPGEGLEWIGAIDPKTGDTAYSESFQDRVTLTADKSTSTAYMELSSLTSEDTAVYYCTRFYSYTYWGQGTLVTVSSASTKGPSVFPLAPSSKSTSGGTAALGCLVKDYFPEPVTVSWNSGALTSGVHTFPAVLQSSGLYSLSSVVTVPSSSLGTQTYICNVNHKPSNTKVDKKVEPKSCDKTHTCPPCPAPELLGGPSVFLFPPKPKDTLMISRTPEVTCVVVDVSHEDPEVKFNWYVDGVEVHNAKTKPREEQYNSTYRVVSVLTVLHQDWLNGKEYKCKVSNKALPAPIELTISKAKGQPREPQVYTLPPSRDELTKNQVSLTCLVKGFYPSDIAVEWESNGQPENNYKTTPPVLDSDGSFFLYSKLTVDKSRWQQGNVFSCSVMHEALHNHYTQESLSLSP
light: DIVMTQSPLSLPVTPGEPASISCQASESLVHSNRNTYLHWYLQKPGQSPQLLIYKVSNRFSGVPDRFSGSGSGTDFTLKISRVEAEDVGVYYCSQNTHVPPTFGQGTKVEIERTVAAPSVFIFPPSDEQLKSGTASVVCLLNNFYPREAKVQWKVDNALQSGNSQESVTEQDSKDSTYSLSSTLTLSKADYEKHKVYACEVTHQGLSSPVTKSFNRGEC
notes: also called Ho Ab K334_08L
B8: GpH7-B3 variant I332_18N/GpL16-k0 (antibody, human IgG1, kappa)
heavy: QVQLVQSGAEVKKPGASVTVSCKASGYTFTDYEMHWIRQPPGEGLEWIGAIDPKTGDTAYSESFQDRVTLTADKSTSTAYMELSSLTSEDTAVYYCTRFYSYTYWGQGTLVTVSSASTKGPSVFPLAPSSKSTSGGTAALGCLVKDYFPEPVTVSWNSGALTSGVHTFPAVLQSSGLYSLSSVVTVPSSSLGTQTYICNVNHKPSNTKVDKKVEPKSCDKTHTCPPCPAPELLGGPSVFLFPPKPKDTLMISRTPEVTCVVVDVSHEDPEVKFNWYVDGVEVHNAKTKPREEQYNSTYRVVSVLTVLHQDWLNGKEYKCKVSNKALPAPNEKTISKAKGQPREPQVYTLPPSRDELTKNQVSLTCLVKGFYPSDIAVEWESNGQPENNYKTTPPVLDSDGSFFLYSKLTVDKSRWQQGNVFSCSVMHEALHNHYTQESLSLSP
light: DIVMTQSPLSLPVTPGEPASISCQASESLVHSNRNTYLHWYLQKPGQSPQLLIYKVSNRFSGVPDRFSGSGSGTDFTLKISRVEAEDVGVYYCSQNTHVPPTFGQGTKVEIERTVAAPSVFIFPPSDEQLKSGTASVVCLLNNFYPREAKVQWKVDNALQSGNSQESVTEQDSKDSTYSLSSTLTLSKADYEKHKVYACEVTHQGLSSPVTKSFNRGEC
notes: also called Ho Ab I332_18N
B9: GpH7-B3 variant K326_06M/GpL16-k0 (antibody, human IgG1, kappa)
heavy: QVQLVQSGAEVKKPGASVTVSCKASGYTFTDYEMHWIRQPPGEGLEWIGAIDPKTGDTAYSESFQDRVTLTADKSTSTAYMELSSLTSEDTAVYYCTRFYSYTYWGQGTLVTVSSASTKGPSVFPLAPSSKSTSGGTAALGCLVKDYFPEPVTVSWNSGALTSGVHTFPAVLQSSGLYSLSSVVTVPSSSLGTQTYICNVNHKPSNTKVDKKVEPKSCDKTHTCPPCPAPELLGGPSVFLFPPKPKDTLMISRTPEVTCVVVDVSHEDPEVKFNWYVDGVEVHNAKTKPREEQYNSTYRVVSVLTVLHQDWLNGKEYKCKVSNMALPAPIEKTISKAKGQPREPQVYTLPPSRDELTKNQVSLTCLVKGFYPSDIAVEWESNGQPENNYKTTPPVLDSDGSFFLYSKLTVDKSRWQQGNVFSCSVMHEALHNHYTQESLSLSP
light: DIVMTQSPLSLPVTPGEPASISCQASESLVHSNRNTYLHWYLQKPGQSPQLLIYKVSNRFSGVPDRFSGSGSGTDFTLKISRVEAEDVGVYYCSQNTHVPPTFGQGTKVEIERTVAAPSVFIFPPSDEQLKSGTASVVCLLNNFYPREAKVQWKVDNALQSGNSQESVTEQDSKDSTYSLSSTLTLSKADYEKHKVYACEVTHQGLSSPVTKSFNRGEC
notes: also called Ho Ab K326_06M
B10: GpH7-B3 variant I332_19Q/GpL16-k0 (antibody, human IgG1, kappa)
heavy: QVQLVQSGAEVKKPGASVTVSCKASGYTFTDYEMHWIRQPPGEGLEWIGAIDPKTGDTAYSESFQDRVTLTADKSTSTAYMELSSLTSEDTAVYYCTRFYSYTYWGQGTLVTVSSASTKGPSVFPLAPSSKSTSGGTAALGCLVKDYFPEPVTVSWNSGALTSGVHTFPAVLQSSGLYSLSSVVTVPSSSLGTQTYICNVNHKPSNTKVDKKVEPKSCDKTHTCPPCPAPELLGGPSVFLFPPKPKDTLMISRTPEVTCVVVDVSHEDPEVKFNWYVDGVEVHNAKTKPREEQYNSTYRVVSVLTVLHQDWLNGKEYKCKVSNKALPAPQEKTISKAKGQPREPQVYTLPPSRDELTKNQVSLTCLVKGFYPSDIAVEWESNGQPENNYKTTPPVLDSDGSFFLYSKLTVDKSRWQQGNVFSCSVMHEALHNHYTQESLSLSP
light: DIVMTQSPLSLPVTPGEPASISCQASESLVHSNRNTYLHWYLQKPGQSPQLLIYKVSNRFSGVPDRFSGSGSGTDFTLKISRVEAEDVGVYYCSQNTHVPPTFGQGTKVEIERTVAAPSVFIFPPSDEQLKSGTASVVCLLNNFYPREAKVQWKVDNALQSGNSQESVTEQDSKDSTYSLSSTLTLSKADYEKHKVYACEVTHQGLSSPVTKSFNRGEC
notes: also called Ho Ab I332_19Q
B11: GpH7-B3 variant I332_16H/GpL16-k0 (antibody, human IgG1, kappa)
heavy: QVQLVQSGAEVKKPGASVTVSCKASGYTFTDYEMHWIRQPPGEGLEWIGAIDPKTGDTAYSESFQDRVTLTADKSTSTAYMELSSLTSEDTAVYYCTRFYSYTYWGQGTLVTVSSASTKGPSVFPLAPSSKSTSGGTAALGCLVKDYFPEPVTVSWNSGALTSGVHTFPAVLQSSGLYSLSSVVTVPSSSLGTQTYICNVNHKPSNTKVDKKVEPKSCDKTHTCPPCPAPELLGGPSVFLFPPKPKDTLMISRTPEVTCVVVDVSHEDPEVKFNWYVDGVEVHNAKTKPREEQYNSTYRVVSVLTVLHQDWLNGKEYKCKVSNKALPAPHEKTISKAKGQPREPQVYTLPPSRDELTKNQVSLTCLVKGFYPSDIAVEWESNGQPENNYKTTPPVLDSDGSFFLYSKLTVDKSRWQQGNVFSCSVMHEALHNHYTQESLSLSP
light: DIVMTQSPLSLPVTPGEPASISCQASESLVHSNRNTYLHWYLQKPGQSPQLLIYKVSNRFSGVPDRFSGSGSGTDFTLKISRVEAEDVGVYYCSQNTHVPPTFGQGTKVEIERTVAAPSVFIFPPSDEQLKSGTASVVCLLNNFYPREAKVQWKVDNALQSGNSQESVTEQDSKDSTYSLSSTLTLSKADYEKHKVYACEVTHQGLSSPVTKSFNRGEC
notes: also called Ho Ab I332_16H

What follows are binders tested against T1, FcγRIIa H (assay: SPR Biacore, relative binding).
For B1, the Ho/Con_2aH was 126 % of GpH7-B3/GpL16-k0 (=100). For B2, the Ho/Con_2aH was 110 % of GpH7-B3/GpL16-k0 (=100). With B3 the Ho/Con_2aH was 111 % of GpH7-B3/GpL16-k0 (=100). For B4, the Ho/Con_2aH was 131 % of GpH7-B3/GpL16-k0 (=100). With B5 the Ho/Con_2aH was 101 % of GpH7-B3/GpL16-k0 (=100). In the case of B6, the Ho/Con_2aH is reported as 116 % of GpH7-B3/GpL16-k0 (=100). With B7 the Ho/Con_2aH was 103 % of GpH7-B3/GpL16-k0 (=100). In the case of B8, the Ho/Con_2aH is reported as 118 % of GpH7-B3/GpL16-k0 (=100). In the case of B9, the Ho/Con_2aH is reported as 101 % of GpH7-B3/GpL16-k0 (=100). B10 was tested, and the Ho/Con_2aH was 114 % of GpH7-B3/GpL16-k0 (=100). B11 was tested, and the Ho/Con_2aH was 119 % of GpH7-B3/GpL16-k0 (=100).
